Data taken from US20180177850A1 (HANMI PHARM, published 2018).
Bridges are numbered along the chain shown (N, C = ends). Where no end group is shown, it is not given here. [ ]: non-standard residue; d: D form. The star is where a group is joined. Acetyl(2-(4-imidazolyl)) = O=C(Cc1c[nH]cn1)*; Aib = CC(C)(N)C(=O)O

Legend:
Test in all cases: cell-based or functional assay
human glucagon receptor = human glucagon receptor (human, UniProt P47871 26-477)
[1] = target: human glucagon receptor (human) (UniProt P47871)
human glucagon receptor (human), sequence (P47871 26-477): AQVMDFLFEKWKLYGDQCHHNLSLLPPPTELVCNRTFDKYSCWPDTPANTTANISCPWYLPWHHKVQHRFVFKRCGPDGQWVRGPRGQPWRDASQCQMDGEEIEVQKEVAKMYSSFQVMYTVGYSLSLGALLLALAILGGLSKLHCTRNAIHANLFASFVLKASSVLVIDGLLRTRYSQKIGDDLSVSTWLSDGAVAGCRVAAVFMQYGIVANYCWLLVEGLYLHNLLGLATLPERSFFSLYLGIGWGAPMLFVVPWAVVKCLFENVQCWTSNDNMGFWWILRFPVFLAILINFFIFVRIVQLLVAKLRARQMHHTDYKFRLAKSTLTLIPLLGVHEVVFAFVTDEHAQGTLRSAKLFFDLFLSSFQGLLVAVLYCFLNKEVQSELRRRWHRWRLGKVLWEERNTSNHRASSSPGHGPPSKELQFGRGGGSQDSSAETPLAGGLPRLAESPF

[2] = target: human GLP-1 receptor (human) (UniProt P43220)
human GLP-1 receptor (human), sequence (P43220 24-463): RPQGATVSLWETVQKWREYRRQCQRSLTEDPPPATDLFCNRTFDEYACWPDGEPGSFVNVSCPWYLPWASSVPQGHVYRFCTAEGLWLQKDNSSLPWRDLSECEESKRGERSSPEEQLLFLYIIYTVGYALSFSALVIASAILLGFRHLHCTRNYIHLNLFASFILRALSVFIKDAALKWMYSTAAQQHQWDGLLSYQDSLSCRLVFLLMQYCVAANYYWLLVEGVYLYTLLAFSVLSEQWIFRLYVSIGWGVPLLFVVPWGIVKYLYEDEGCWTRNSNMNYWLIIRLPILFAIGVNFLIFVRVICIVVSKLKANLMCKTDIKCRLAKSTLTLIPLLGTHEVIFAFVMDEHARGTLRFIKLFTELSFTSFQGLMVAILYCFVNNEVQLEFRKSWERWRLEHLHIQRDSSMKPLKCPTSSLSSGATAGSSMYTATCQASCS

human GLP-1 receptor = human GLP-1 receptor (human, UniProt P43220 24-463)

human glucagon receptor, sequence (P47871 26-477): as the sequence (P47871 26-477) above

[Acetyl(2-(4-imidazolyl))]GEGTFTSDLSRQMEEEAVRLFIEWAAHSQGTFTSDYSKYLD [oxyntomodulin derivative of SEQ ID NO: 6]
EC50 (cAMP, CHO/GCGR) (human glucagon receptor): > 1000 nM

[Acetyl(2-(4-imidazolyl))]SQGTFTSDYSKYLDERRAQDFVAWLKNTGPSSGAPPPS [oxyntomodulin derivative of SEQ ID NO: 3]
EC50 (cAMP, CHO/GCGR) [1]: 638 nM
EC50 (cAMP, CHO/GLP-1R) [2]: > 1000 nM

Y[Aib]QGTFTSDYSKYLDEKRAKEFVQWLMNTC (bridge 16-20) [oxyntomodulin derivative of SEQ ID NO: 34]
EC50 (cAMP, CHO/GLP-1R) (human GLP-1 receptor): 12.5 nM
EC50 (cAMP, CHO/GCGR) (human glucagon receptor): 1.04 nM

H[Aib]QGTFTSDYSKYLDEKRAKEFVQWLMNTC (bridge 16-20) [oxyntomodulin derivative of SEQ ID NO: 25]
EC50 (cAMP, CHO/GLP-1R) (human GLP-1 receptor): 1.9 nM
EC50 (cAMP, CHO/GCGR) (human glucagon receptor): 1.3 nM

[Acetyl(2-(4-imidazolyl))]SQGTFTSDYSRYLDEEAVRLFIEWIRNGGPSSGAPPPSK [oxyntomodulin derivative of SEQ ID NO: 18]
EC50 (cAMP, CHO/GCGR) [1]: > 1000 nM
EC50 (cAMP, CHO/GLP-1R) [2]: 96.3 nM

[Acetyl(2-(4-imidazolyl))]SQGTFTSDLSRQLEEEAVRLFIEWLMNK [oxyntomodulin derivative of SEQ ID NO: 8]
EC50 (cAMP, CHO/GCGR) [1]: > 1000 nM
EC50 (cAMP, CHO/GLP-1R) [2]: 420 nM

[Acetyl(2-(4-imidazolyl))]GEGTFTSDLSRQMEEEAVRLFIEWAAHSQGTFTSDYSRYLDK [oxyntomodulin derivative of SEQ ID NO: 11]
EC50 (cAMP, CHO/GLP-1R) (human GLP-1 receptor): > 1000 nM
EC50 (cAMP, CHO/GCGR) (human glucagon receptor): > 1000 nM

H[Aib]QGTFTSDYAKYLDEKRAKEFVQWLMNTC (bridge 16-20) [oxyntomodulin derivative of SEQ ID NO: 33]
EC50 (cAMP, CHO/GLP-1R) (human GLP-1 receptor): 2.2 nM
EC50 (cAMP, CHO/GCGR) (human glucagon receptor): 80.2 nM
